The source of these data is publication PMC4657913.

A value given as a limit tells only on which side of the number the result lay.

The assay addresses RHDV VPg fused to the VN155 (I152L) fragment for BiFC (Rabbit hemorrhagic disease virus (RHDV) strain CHA/JX/97). The assay is described as follows: split reporter (BiFC, NanoBiT); BiFC in RK-13 cells, pVPg-VN and peIF4E-VC; green fluorescence quantified by flow cytometry 48 h after transfection. For orientation: In flow cytometry, cells or beads pass a laser one at a time.

Consider “eIF4E fused to the VC155 fragment for BiFC (from UniProt P29338 1-217) (natural protein)”, for which the BiFC signal-to-noise (ratio between the treatment and control groups) is above 3.
